T1: murine IFNγ receptor (murine, UniProt P15261)
T1 sequence: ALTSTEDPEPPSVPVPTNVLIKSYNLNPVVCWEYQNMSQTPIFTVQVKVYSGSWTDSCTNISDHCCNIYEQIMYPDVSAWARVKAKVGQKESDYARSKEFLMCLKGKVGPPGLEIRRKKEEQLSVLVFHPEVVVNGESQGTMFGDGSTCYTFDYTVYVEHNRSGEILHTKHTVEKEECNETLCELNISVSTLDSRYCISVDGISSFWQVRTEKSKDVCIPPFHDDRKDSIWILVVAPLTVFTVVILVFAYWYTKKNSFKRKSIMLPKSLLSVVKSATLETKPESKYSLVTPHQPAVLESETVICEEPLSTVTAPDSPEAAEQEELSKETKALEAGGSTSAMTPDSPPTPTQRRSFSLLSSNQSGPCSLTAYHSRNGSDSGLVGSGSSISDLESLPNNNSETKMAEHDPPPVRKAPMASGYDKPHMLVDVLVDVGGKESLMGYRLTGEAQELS


Molecular target: T1, murine IFNγ receptor
Test: cell-based or functional assay

Binder | Ia (MHC class II) expression on P388D1 cells by FACS, peptide at 100 µM, 24 hours [fold]
AKFEVNNPQVQRQAFNELIRVVHQLLPESSLRKRKRSRC [muIFNγ (95-133)] | 10
LTNYSVTDLNVQRKAIHELIQVMAELSPAAKTGKRKRSQM [huIFNγ (95-134)] | 10

Reference: patent publication US5770191, “Active C-terminal peptides of interferon--gamma and their use” (University of Florida, dated 1998)
